Values of other authors, collected in paper PMC4216181 (Journal of nuclear medicine : official publication, Society …, 2009).

Molecular target: HER2 (Homo sapiens, UniProt P04626)
Conditions: read-out: dissociation constant [KD]; HER2, nonmodified 2-helix protein; cited from earlier work

**Q.** For “[homoC]NKEMRNRYWEAALDPNLNNQQK-RAKIRSIYDDP[homoC]-NH2 (disulfide) [MUT-DS]”, which Kd is on record?
**A.** 5 nM
